The data set in a line: yeast display, Sf9 membrane polyspecificity reagent, FACS + sequencing; frameworks hold sequencing errors. In outline: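 Galactose induction of a Saccharomyces cerevisiae BJ5465 synthetic nanobody display library ran 36–48 hours. The cells were then stained for 1 hour at 4 °C with 10% biotinylated, detergent-solubilized Sf9 membrane reagent, pulled down on streptavidin microbeads and FACS-sorted into low and high (top ~1%) gates on expression and reagent-binding fluorescence. Labels for polyreactivity follow the gate of origin.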
Consider “QVQLVESGGGLFQAGGSLRLTCAASGSIFTVYSIGLYRQAPGKERELVAGISSGAGTTYADSVKGRFTISRDNAKNTVYLQMNSLIPEVTAVYYCAAYTWDTDHYWYGYVPYDYWGQGTQVTVSS”, for which the “polyreactivity (PSR sort gate)” value is reported as “low polyreactivity”.

Take “QVQLVESGGGLVQAGGSLRLSCAASGFIFGPNAMGWYRQAPGKERELVAAISWIGSSTYYADSVKGRFTISRDNAKNTVYFQMNSLKPQDTAVYYCAADSSERRLMDFDYWGQGTQVTVSS”: the “polyreactivity (PSR sort gate)” value is recorded as “low polyreactivity”.

Take “QVQLVESVGGLVQAGGSLRLSCAASGRTISRNAMGWYRQAPGKERELVAAISASGGRTYYADSVKGRFTISRDNAKNTVYLQMKSLKPEDTEVYFCAASTTGYRYYDYCGQGTQVTVSS”: the “polyreactivity (PSR sort gate)” value is on record as “high polyreactivity”.

Consider “QVQLVESGGGLVQAGGSLRLSCAASGFISRNAMGWYRQAPGKERELVAAITRGGSTNYADSVKGRFTISRDNAKNTVYLQMNRLKPEDTAVYYCNKQRQGNSRSYYQTYYGMYYWGQGTQVTVSS”, for which the “polyreactivity (PSR sort gate)” value is recorded as “high polyreactivity”.

As to “QVQLVESGGGLVQAGGSLRLSCAASGSIFRSNAMGWYRQAPGKEREVVAAISSRGGSTYYADSVKGRFTISRDNAKNTVYLQMNSLKPEDTAVYFCNKARYTVISYDEYDYWGQGTQVTVSS”, the “polyreactivity (PSR sort gate)” value was “high polyreactivity”.

With “QVQLVESGGGLVQAGGSLRLSCAASGSTLRSKAMGWYRQAQGKERELVASISSGGSTSYADSVKGRFTISRDNAKNTVYLQMNSLKPEDTAVYYCAADNSVGSYDYWGQGTQVTVSS”, the “polyreactivity (PSR sort gate)” value is “low polyreactivity”.

Regarding “QVQLVESGGVLVQAGGSLRLTCAAYGFSFSTYAMGWYRQAPGKERQLVASIDWSGDSTYYADSVKGRFTISRDNAKNTVYLQMNSLKPEDTAVYYCAADDASYPYIFDSYDYWGQGTQVTVSS”, the “polyreactivity (PSR sort gate)” value is listed as “low polyreactivity”.

Consider “QVQLVESGGGLVQAGGSLRISCAASGFTFRNYAMGWYRQAPGKEREFVASISFAGGRTYYADSVKGRFTISRDNAKNTVYLQMNSLKPEDTAVYYCAKKSYSKYDYWGQGTQVTVSS”, for which the “polyreactivity (PSR sort gate)” value is recorded as “high polyreactivity”.

As to “QGQLVESGGGLVQAGGSLRLSCAASGRTFTYYVMGWSRQAPGKERELVAAISWTGGSTNYADSVMGRFTISRDNAKNTVYLQMNSRKPEDTAVYYCNAGGFFGYGRPGYYWGQGTQVTVSS”, the “polyreactivity (PSR sort gate)” value is listed as “low polyreactivity”.

Take “QVQLVESGGGLVQAGGSLRLSCAASGRTFESYAMGWYRPAPGKERELVAAITWSGGDTYYADSVKGRFTISRDNAKNTVYLQMNSLKPEDTAVYYCAKEQGLYSVSPYDYWGQGTQVTVSS”: the “polyreactivity (PSR sort gate)” value is on record as “low polyreactivity”.

With “QVQLVESGGGLVQAGGSLRLSCAASGTFGGYAMGWYRQAPGKERELVARIRRNGGSTYYADSVKGRFTISRDTAKNTVYLQMNSLKPEDTAVYYCATDQLSLSSYFRPYDYGYWGQGTQVTVSS”, the “polyreactivity (PSR sort gate)” value is listed as “high polyreactivity”.

Regarding “QVQLVESGGGLVQAGGSLRLICAASGRTFWNYAMGWYRQAPGKERELVAVIRFSDGSTYYADSVKGRFTISRDNAKNTVYLQMNSLKPEDTAVYYCAAKGPRRWGSGFDYWGQGTQVTVSS”, the “polyreactivity (PSR sort gate)” value was “low polyreactivity”.

“QVQLLESGGGLVQAGGSLRLRCASSGSISDWNAMGWYRQAPGKERELVAAISRGGNTNYADSVKGRFTISRDNAKNTVYLQMNSLKPEDTAVYYCAAGHGSLRYNYWGQGTQVSVSS”: the “polyreactivity (PSR sort gate)” value is recorded as “high polyreactivity”.

Turning to “QVQLVESGGGLVQAGGSLRLSCAASGSIFRRYATGWYRQAPGKERQLVAAISSGGSTYADSVKGRFTISRDNAKNTVYLQMNSLKPEDTAVYYCNASGRWYYGRRYDYWGHGTQVTVSS”, the “polyreactivity (PSR sort gate)” value was “low polyreactivity”.

As for “QLQLHESGGVQAGGSLRLSCAAGGYISRSDVMGWYRQAPGKERELVATINNGTITYYADSVKGRFNISRDNAKNTVYLQMNSLKREDTAVHYWAVVQSDCDSLYYWGQGTQVTVSS”, the “polyreactivity (PSR sort gate)” value is given as “low polyreactivity”.

Turning to “QVQLVESGGGLVQAGGSLRLSCAASGAIFYYYCMGWYRQAPGKEREWVAGISSRGGRTYYADSVKGRFTISRDNAKNTVYLQMNSLKPVDTAVYYCAADRYYYAYRYFPSGYWGQGTQVTVSS”, the “polyreactivity (PSR sort gate)” value is “low polyreactivity”.

Take “QVQLVESGGGLVQAGGSLRLSCAASGSTFGRYAMGWYRQAPGKESELVAAISSSGGRTYYADSVKGRFTISRDNAKNTVYLQMNSLKPEDTAVYYCAAPGAQGLGLRGAGLDYWGQGTQVTVSW”: the “polyreactivity (PSR sort gate)” value is “high polyreactivity”.

For the sequence “QVQLVESGGGLVQAGGSLRLRCAASGFIFRHNAMGWYRQAPGKAREFVAAISISGGSTYYADSVKGRFTISRDNAKNTVYLQMNSLKPEDTAVYYCNARSMGNTYLLYDYWGQGTQVTFSS”, the “polyreactivity (PSR sort gate)” value was “low polyreactivity”.

Regarding “QVQLVESGGGLVQAGGSLRLSCAASGITINYYAMGWYRQAPGKERELVATIRSGGGTYYADSVKGRFTISRDNAKNTVYLQMNSLKTEDTAVYYCASYTYPYYRYDYWGQGTQVTVSS”, the “polyreactivity (PSR sort gate)” value is given as “high polyreactivity”.

As to “QVQLVESVGGLVQAGGSLRLSCAASGRIFLVYVMGWYRQAPGKERELVAAISASDGSTYYADSVKGRFTISRDNAKNTVYLQMNSLKPEDTAVYYCAEWGYSLDSNSYRELNYWGQGTQVTVSS”, the “polyreactivity (PSR sort gate)” value was “low polyreactivity”.

On to “QVQLVESGGGLVQAGGSLRLSCAASGSIFNRYAMGWYRQEPGKERELVAAISRSGGRTYYADSVKGRFTISRDNAKNTVYLQMNSLKPEDTAVYYCAAQSYLHYGYWGQGTQVTVSS”, for which the “polyreactivity (PSR sort gate)” value is on record as “high polyreactivity”.

Take “QFQLVESGGGLVQAGGSLRLSCAASGSIFGPYAMGWYRQAPGKEREFVAAISRSGTRTNFADSVKGSFTISRDSAKNTVYLQMNSLKPEDTAVYYCATAAFIVGTSRTYDYWGQGTQVTVSS”: the “polyreactivity (PSR sort gate)” value is on record as “high polyreactivity”.

With “QVQLVESGGGLVQAGGSLRLSCAASGSNFHPYAMGWYRPAPGKEREFVAAITFRGSTYYADSVKGRFTISRDNAKNTVYLQLNSLKPEDTAVYYCAARYNIFRRGSRNYDYWGQGTEVTVSS”, the “polyreactivity (PSR sort gate)” value is given as “high polyreactivity”.

As to “QVQLVESGGGLVQAGGSLRLSCAASGIIFDTYAMGWYRQAPGKERELVAAISRSGDTTYYADSVKGRFTISRDNAKNTVYLQMNSLKPEDTAVYYCNRGNRWNFDSWGQGTQVTVSS”, the “polyreactivity (PSR sort gate)” value is reported as “high polyreactivity”.

For “QVQLVESGGGLVQAGGSLRLRCAASGGIFGRYAMGWNRQAPGKERELVAAISSRGGSTYYADSVKGRFTISRDNAKNTVYLQMNSLKPEDTAVYYCNALWVSYYTFRMDYWGQGTQVTVSS”, the “polyreactivity (PSR sort gate)” value is “high polyreactivity”.

Consider “QVQLVESGGGLVQAGGSLRLSCAASGITLLGNAMGWYRQAPGTERELVAAISRRGGSTYYADSVKGRFTISRDNAKNTVYLQMNSLKPEDTAVYYCAADRYTVVYYRIFDYWGQGTQVTVSS”, for which the “polyreactivity (PSR sort gate)” value is listed as “high polyreactivity”.

As to “QVQLVESGGGLVQAGGSLRLSCAASGFTFPFYTMGWYRQAPGKERELVAAITRSGASTFYADSVKGRFTISRDNAKNTVYLQMNSLKPEDTAVYYCAARRGYAPYEYWGQGTQVNVSS”, the “polyreactivity (PSR sort gate)” value is “high polyreactivity”.

As to “QVQLVESGGGLVKAGGSLRLSCAASGITFLYYAMACYRQAPGKERELVAAISTSGGSTYYSDSVKGRFTISRDNAKNTVYLQMNSLKPEDTAVYYCAKSVGVGGEDRVGSWGQGTQVTVSS”, the “polyreactivity (PSR sort gate)” value was “low polyreactivity”.

For “QVQLVESGGGLVQAGGSLRLSCAASGRIFHYYMGWYRQAPGKERELVAVISSGDGTYYADSVKGRFTISRDNAKNTVYLQMNSLKPEDTAVYYCAADAPREYVDHYKYDDDYWGQGTQVNVSS”, the “polyreactivity (PSR sort gate)” value is on record as “low polyreactivity”.

On to “QVQLVQSGGGLVQAGGSLRLSCAASGSIFLYYVMGWYRQAPGQERELVAAITWDGGSTYYADSVKGRFTISRDNAKNTVYLQMNSLNPEDTAVYFCAARVASKYLVYRKRPSRYDYWGQGTQLTVSS”, for which the “polyreactivity (PSR sort gate)” value is given as “low polyreactivity”.

In the case of “QVQLVESGGGLLQAGGSLSLICAASGFSIYKNAMGWYSQAPGKERELVAAITSSGGYTYYADSVKGRFTISRDNAKNTVYLQMNILKPEDTAVYYCAGSPQAYIADYDYWGQGTQVTVSS”, the “polyreactivity (PSR sort gate)” value is on record as “low polyreactivity”.

Take “QVQLVESGGGLVQAGGSLRLSCAASGSTSGRNVMGWYIQAPGKERELVAAISSRGGSTYYADSVKGRFTISRDNAKNTVYLQMNSLKPEDTAVYYCAARYGAYSGYDYWGQGTQVTVSS”: the “polyreactivity (PSR sort gate)” value is “high polyreactivity”.

As for “QVQLVESGGGLVQAGGSLRLSCAASGFIFYSNMGWYRQARGKEREFVAAITWRGGSTYADSVKGRFTISRDNAKNTVYLQMNSLKPEDTAVYYCARESYRAHTPGHPSGTRFGYWGQGTQVTVSS”, the “polyreactivity (PSR sort gate)” value is “high polyreactivity”.

“QVQLVESGGGLVQAGCSLRLICAASGFIFPTNAMGWYRQAPGKERELVARISYGGGDTHYADSVKGRFTISRANAKTTVYLQMNSLKPEDTAVHYCAVKDGQDDYWGQGTQVTVSS”: the “polyreactivity (PSR sort gate)” value is “low polyreactivity”.

“QVQLVESGGGLVQAGGSLRLSCAASGIIFNSNAMGWYRQAPGKERELVAAISVSGGSTYYADSVKGRFTISRDNAKNTVYLQMNILKPEDTAVYYCAAVFYYWSLRSYYWGQGTQVTVSS”: the “polyreactivity (PSR sort gate)” value is listed as “high polyreactivity”.

As to “QVQLVESGGGLVQAGGSLRLSCAASGFTFRRNAMGWYRQAPGKERELVAVITTAGSTNYADSVKGRFTISRDNAKNTVYLQMTSLKPEDTAVYYCATDNGTRKRRYDYWGQGTQVNVSS”, the “polyreactivity (PSR sort gate)” value is “low polyreactivity”.

“QVQLEESGGGLVQAGGSLRLSCAASGFTFVDYLMGWYRQAPGKERELVAAITRSGGSTYYADSVKGRFTISRDQAKNTVYLEMNSLKPEDTAVYYCAAEIRDYAKSYSFYWGQGTQVTVSS”: the “polyreactivity (PSR sort gate)” value is given as “high polyreactivity”.

For “QVHLVDSGGGLVQAGGSLRLSCAAYGSTFHPYAMGWYRQAPGKERELVADITSSGSTHYADSVKGRFTISRDNAKNTVYLQMNSLKPEDTAVYYCAAGIPWASDSGDPSFEYWGQGTEVTVSS”, the “polyreactivity (PSR sort gate)” value was “low polyreactivity”.

On to “QVQLVESGGGLVQAGGSLRLSCAASGYTFIVNAIGWYRQAPGKERELVAGISYRGGRTFYADSVKGRFTISRDNAKNTVYLQMNSLKPEDTAVYYCAARKTGIPFYNYDYWGQGTQVTVSS”, for which the “polyreactivity (PSR sort gate)” value is “low polyreactivity”.

As to “QVQLVESGGGLVQAGGSLRLSCAASGSTFVFYAMGWYRQAPGKERELVATISSGGSTYADSVKGRFTISRDNAKNTVYLQMYSLKPEDTAVYYCAADSLFGHYDYWGQGTQVTVSS”, the “polyreactivity (PSR sort gate)” value was “low polyreactivity”.

As for “QVQLVESGGGLVQAGGSLRLSCAASGRTYGEYGMGWYRQAPGKERELVAAISSTGSTYYADSVKGRFTISRDNAKNTVYLQMNSLKPEDTAVYYCAAEIVRYGDEYDYWGQGTQVTVSS”, the “polyreactivity (PSR sort gate)” value is reported as “low polyreactivity”.

The values are drawn from the nanobody polyreactivity screen of Harvey et al. (2022).
